Assay [1] concerns the target LysP7951 full-length product (FLP), produced from the wild-type lysP7951 gene (Streptococcus thermophilus phage P7951). The assay can be described thus: native MS; purified LysP7951 complex (co-produced, co-purified) in 150 mM ammonium acetate, about 10 μM, nano-ESI Q-TOF, positive mode, collision energy 0 V (15 and 100 V for dissociation).
The target is the same in assay [2]. The assay is described as follows: SEC; analytical gel filtration (Superose 6 10/300 GL, calibrated) of single purified preparations; protein buffer (50 mM HEPES, 500 mM NaCl, 1% glycerol, pH 7), 0.4 mL/min; apparent molecular masses from elution volumes. (In general: Size exclusion chromatography separates by hydrodynamic size, large species first.)
Assay [3] deals with LysP7951_(209-310) (Streptococcus thermophilus phage P7951). The assay can be described thus: SAXS; LysP7951 CTP at 1.00, 1.85, 2.70 mg/mL in protein buffer, 20°C, BM29 beamline ESRF; molecular mass estimated from the scattering data.
The target is the same in assay [4]. The assay is described as follows: SEC; analytical gel filtration (Superose 6 10/300 GL, calibrated) of single purified preparations; protein buffer (50 mM HEPES, 500 mM NaCl, 1% glycerol, pH 7), 0.4 mL/min; apparent molecular masses from elution volumes.

Regarding “LysP7951 C-terminal product (CTP), produced from the internal translation start site of the wild-type lysP7951 gene (domain or fragment)”, the stoichiometry N (CTP subunits per FLP) came to 5 in assay [1] and 4 in assay [2].
The stoichiometry N is the number of molecules, sites or subunits per partner or assembly. Consider LysP7951_(209-310) (domain or fragment), for which the stoichiometry N was 6 to 7 subunits in assay [3] and 7 subunits in assay [4].
